Biological target: T1, aggregated Aβ in plaques of the cerebral cortex of a patient with Alzheimer's disease (human (brain of a patient with …, UniProt P05067 672-713))
T1 construct: Tissue section fixed in 4% formaldehyde, embedded in paraffin, pre-treated with formic acid; also called neurotic plaques
Assay: immunolabeling of sections of Alzheimer's disease cerebral cortex
From the text: A section of the cerebral cortex of the brain of a patient with Alzheimer's disease was fixed in 4% formaldehyde and embedded in paraffin, then pre-treated with formic acid. […] Arrows indicate vessels in the serial sections.

T1 sequence (P05067 672-713): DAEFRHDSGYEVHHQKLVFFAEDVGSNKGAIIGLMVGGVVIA

B1: antibody 4396C (antibody, V domains shown)
VH: EVQLQQSGPELVKTGASVKISCKASGYSFTGYYMHWVKQSHGKSLEWIGYISCYNGATSYNQKFKGKATFTVDTSSSTAYMQFNSLTSEDSAVYYCARGANWVFDYWGQGTTLTVSS
VL: QAVVTQESALTTSPGGTVILTCRSSTGAVTTSNYANWVQEKPDHLFTGLIGGTSNRAPGVPVRFSGSLIGDKAALTITGAQTEDDAMYFCALWYSTHYVFGGGTKVTVLG
binding result: no binding
